# Laboratory results published in article PMC5286426, “The Calcium-Dependent Switch Helix of L-Plastin Regulates Actin Bundling” (Scientific Reports, 2017).
# B1: CaMKI peptide (CaM-binding peptide) (peptide)
# chain: AKSKWKQAFNATAVVRHMRKLQ
# modifications: Limits are not given; 299-320 is the conventional 22-residue CaMKI calmodulin-binding peptide. Terminal modifications are not stated.
# Target: T1, L-plastin EF construct (EF-hand headpiece domain, H5 region omitted) (human)
# T1 construct: human L-plastin (LPL), EF construct: the two N-terminal EF-hand motifs (helices 1-4, residues 8-79) with the H5 region omitted; holds Cys42; 15N-labelled in the NMR experiment; immobilised by Cys42 in SPR; also called LPL-EF; EF domain of LPL; source: E. coli BL21 (DE3), purified (IMAC, His-tag cleaved with TEV protease); not shown: His-tag, N-terminal, cleaved
# Experiment: SPR; EF construct immobilised by its sole cysteine (Cys42) on a CM5 chip by thiol coupling; peptides injected; BIAcore X100; 10 mM Tris-HCl pH 7.5, 150 mM KCl, 1 mM CaCl2, 0.005% Tween-20; 30 uL/min, contact 1 min, 25 °C
# Conditions: both partners purified
binder,measurement,value
B1,Kd,3.27 µM
